Reference: patent US20220144960A1 (NANJING LEGEND BIOTECH, published 2022)
Numbering of substitutions follows the chain as printed. Each block holds one binder with its values, some of them ahead of it.

Experiments:
[1] = biological target: T1, human CD30 CRD6 (E282-K379) Fc fusion protein with human IgG1 Fc fragment at the C terminus (human); assay: SPR, captured scFv, human IgG1 Fc-fused CRD protein as analyte
T1 construct: also called CRD6 construct
Description: Some of these unique binders were subjected to for further characterization by surface plasmon resonance (SPR) on a BIAcore T200 instrument (GE Healthcare). The experiment was carried out as follows. The crude sdAb/Fab proteins were captured through an affinity tag (6×Histidine tag) onto the sensorchip. High-concentration (100.0 nM) of human CD30 (R&D systems, Cat. #6126-CD) flowed over the sensorchip surface, and were allowed to bind the antibody fragments for 300 s followed by injection of the running buffer to allow dissociation of the complex. On-rate ([…] and off-rate (kd) were roughly calculated based on one association and dissociation curve, and were used to estimate the equilibrium dissociation constant (KD). 5F11 scFv (SEQ ID NO:216, prepared according to WO2017066122) was used as a positive control. Data were summarized in Table 3 below. The first 10 antibodies in Table 3 were sdAbs with amino acid sequence ID numbers summarized in Table 1, the last antibody was 5F11 scFv, and the remainings were human Fabs with CDR and scFv amino acid sequence ID numbers in Table 2. […]

[2] = biological target: T2, recombinant human CD30 extra cellular domain (ECD) protein (human, UniProt P28908 19-379); assay: SPR Biacore T200, scFv captured, 100.0 nM human CD30 as analyte, single curve
T2 construct: Bought from R&D systems; also called rhCD30; human CD30 ECD
T2 sequence: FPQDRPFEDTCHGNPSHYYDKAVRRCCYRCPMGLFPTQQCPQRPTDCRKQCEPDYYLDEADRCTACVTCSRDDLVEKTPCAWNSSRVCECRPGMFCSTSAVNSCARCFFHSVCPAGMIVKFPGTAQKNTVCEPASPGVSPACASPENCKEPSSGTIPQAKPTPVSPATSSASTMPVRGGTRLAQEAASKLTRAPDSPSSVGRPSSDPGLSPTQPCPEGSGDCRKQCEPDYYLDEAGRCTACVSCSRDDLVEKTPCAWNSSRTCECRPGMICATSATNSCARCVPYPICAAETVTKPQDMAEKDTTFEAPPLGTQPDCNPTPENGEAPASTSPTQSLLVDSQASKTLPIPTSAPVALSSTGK
Description: (§1) Some of these unique binders were subjected to for further characterization by surface plasmon resonance (SPR) on a BIAcore T200 instrument (GE Healthcare). The experiment was carried out as follows. The crude sdAb/Fab proteins were captured through an affinity tag (6×Histidine tag) onto the sensorchip. High-concentration (100.0 nM) of human CD30 (R&D systems, Cat. #6126-CD) flowed over the sensorchip surface, and were allowed to bind the antibody fragments for 300 s followed by injection of the running buffer to allow dissociation of the complex. On-rate ([…] and off-rate (kd) were roughly calculated based on one association and dissociation curve, and were used to estimate the equilibrium dissociation constant (KD). 5F11 scFv (SEQ ID NO:216, prepared according to WO2017066122) was used as a positive control. Data were summarized in Table 3 below. The first 10 antibodies in Table 3 were sdAbs with amino acid sequence ID numbers summarized in Table 1, the last antibody was 5F11 scFv, and the remainings were human Fabs with CDR and scFv amino acid sequence ID numbers in Table 2.

[3] = biological target: T2, recombinant human CD30 extra cellular …; assay: as above; remark: listed apart in the source
Description: as §1

[4] = biological target: T2, recombinant human CD30 extra cellular …; assay: SPR Biacore T200, scFv captured, 100.0 nM human CD30 as analyte, single curve; beyond off-rate detection limit
Description: as §1

rhesus CD30 ECD = biological target: T3, rhesus CD30 ECD (rhesus, UniProt P28908 19-379 (human entry)); assay: ELISA on rhesus CD30 ECD protein; member of the group by paragraph 437
T3 construct: Produced in house; also called recombinant rhesus CD30; rhesus CD30 protein
T3 chain: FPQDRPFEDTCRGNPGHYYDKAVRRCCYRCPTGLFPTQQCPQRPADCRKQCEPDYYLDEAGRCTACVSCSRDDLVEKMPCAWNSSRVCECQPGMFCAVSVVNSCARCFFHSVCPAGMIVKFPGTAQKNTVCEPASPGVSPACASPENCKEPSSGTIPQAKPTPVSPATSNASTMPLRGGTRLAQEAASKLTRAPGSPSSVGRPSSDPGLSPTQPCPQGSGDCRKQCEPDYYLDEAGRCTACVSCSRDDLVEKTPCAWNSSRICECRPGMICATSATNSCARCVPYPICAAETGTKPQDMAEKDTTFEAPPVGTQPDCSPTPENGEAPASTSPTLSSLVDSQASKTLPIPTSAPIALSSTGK

[5] = biological target: T2, recombinant human CD30 extra cellular …; assay: SPR Biacore T200, His-tagged sdAb/Fab captured, 100.0 nM human CD30 as analyte, single curve
Description: as §1

[6] = biological target: T4, human CD30 CRD1 (F19-Q68) Fc fusion protein with human IgG1 Fc fragment at the C terminus (human); assay: ELISA on the CD30 fragment CRD1, absorbance OD 450 nm; sdAb concentration not given
T4 construct: also called CRD1 construct

[7] = biological target: T4, human CD30 CRD1 (F19-Q68) Fc fusion …; assay: SPR, captured Fab, Fc-fused CRD protein as analyte
Description: as §1
(§2) Cysteine rich domains (CRDs) of human CD30 and the flanking residues, i.e., CRD1 (F19-Q68, SEQ ID NO: 3), CRD2 (R66-E107, SEQ ID NO: 4), CRD3 (E107-5153, SEQ ID NO: 5), CRD4 (E150-Q243, SEQ ID NO: 6), CRD5 (R241-E282, SEQ ID NO: 7) and CRD6 (E282-K379, SEQ ID NO: 8), were produced as Fc fusion proteins with human IgG1 Fc fragment (SEQ ID NO: 217) at the C terminus and used for epitope determination using SPR following the protocol similar to what was described above, only the analytes used were human IgG1 Fc-fused CRD proteins.

[8] = biological target: T5, human CD30 CRD2 (R66-E107) Fc fusion protein with human IgG1 Fc fragment at the C terminus (human); assay: SPR, captured Fab, Fc-fused CRD protein as analyte
T5 construct: also called CRD2 construct
Description: as §1, §2

[9] = biological target: T6, human CD30 CRD3 (E107-S153) Fc fusion protein with human IgG1 Fc fragment at the C terminus (human); assay: SPR, captured Fab, Fc-fused CRD protein as analyte
T6 construct: also called CRD3 construct
Description: as §1, §2

[10] = biological target: T7, human CD30 CRD4 (E150-Q243) Fc fusion protein with human IgG1 Fc fragment at the C terminus (human); assay: SPR, captured Fab, Fc-fused CRD protein as analyte
T7 construct: also called CRD4 construct
Description: as §1, §2

[11] = biological target: T8, human CD30 CRD5 (R241-E282) Fc fusion protein with human IgG1 Fc fragment at the C terminus (human); assay: SPR, captured Fab, Fc-fused CRD protein as analyte
T8 construct: also called CRD5 construct
Description: as §1, §2

[12] = biological target: T1, human CD30 CRD6 (E282-K379) Fc fusion …; assay: SPR, captured Fab, Fc-fused CRD protein as analyte
Description: as §1, §2

T1 sequence (chain, as listed by the source limits assumed): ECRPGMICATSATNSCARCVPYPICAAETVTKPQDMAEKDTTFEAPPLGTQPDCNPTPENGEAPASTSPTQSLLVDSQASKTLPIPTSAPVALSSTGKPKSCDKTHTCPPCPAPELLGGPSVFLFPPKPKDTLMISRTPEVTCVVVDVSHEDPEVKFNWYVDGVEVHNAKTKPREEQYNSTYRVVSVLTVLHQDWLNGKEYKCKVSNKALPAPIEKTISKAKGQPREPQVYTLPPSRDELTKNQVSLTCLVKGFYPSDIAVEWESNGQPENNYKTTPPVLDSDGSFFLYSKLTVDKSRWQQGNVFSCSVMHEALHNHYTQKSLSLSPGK
T7 sequence (chain, as listed by the source limits assumed): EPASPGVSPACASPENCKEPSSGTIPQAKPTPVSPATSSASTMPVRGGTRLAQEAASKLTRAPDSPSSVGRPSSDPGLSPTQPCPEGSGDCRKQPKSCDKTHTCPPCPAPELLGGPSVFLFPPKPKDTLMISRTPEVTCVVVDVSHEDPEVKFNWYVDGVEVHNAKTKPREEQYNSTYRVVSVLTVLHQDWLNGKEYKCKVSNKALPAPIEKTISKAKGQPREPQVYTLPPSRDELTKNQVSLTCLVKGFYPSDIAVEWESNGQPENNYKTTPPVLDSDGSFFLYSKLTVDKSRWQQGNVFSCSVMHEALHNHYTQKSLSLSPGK

B1: 5F11 scFv (scFv)
scFv: DIQMTQSPTSLSASVGDRVTITCRASQGISSWLTWYQQKPEKAPKSLIYAASSLQSGVPSRFSGSGSGTDFTLTISSLQPEDFATYYCQQYDSYPITFGQGTRLEIKGSTSGSGKPGSGEGSTKGQVQLQQWGAGLLKPSETLSLTCAVYGGSFSAYYWSWIRQPPGKGLEWIGDINHGGGTNYNPSLKSRVTISVDTSKNQFSLKLNSVTAADTAVYYCASLTAYWGQGSLVTVSS
notes: Positive control; captured like the other fragments, tag not spelled out for it
binding result [1]: binds | Kd [2]: < 0.1 nM | Kd [3]: < 0.0862 nM | kon [3]: 120000 M⁻¹ s⁻¹ | koff [4]: < 1e-05 s⁻¹

B2: AS53445 sdAb (VHH)
VHH: QVQLVESGGGSVQAGGSLRLSCTASGYIFCMGWFRQAPGKAREGIATIYTGGDSTYYDDSVKGRFTISRDNAKNTVYLQMNSLKPEDTAMYYCAAGGQECYLTNWVSYWGQGTQVTVSS
notes: Camel sdAb
binding result (rhesus CD30 ECD): binds | Kd [5]: 80 nM | koff [5]: 0.0085 s⁻¹ | kon [5]: 110000 M⁻¹ s⁻¹ | rhCD30 Binding (RU) [5]: 101 RU | binding result [6]: binds

B3: AS57765 human Fab (Fab, V domains shown)
VH: EVQLVESGGGLVQPGGSLRLSCAASGFNIYYSYMHWVRQAPGKGLEWVAYIYPYSGSTSYADSVKGRFTISADTSKNTAYLQMNSLRAEDTAVYYCARPAVHWHGYGGGYYYGLDYWGQGTLVTVSS
VL: DIQMTQSPSSLSASVGDRVTITCRASQSVSSAVAWYQQKPGKAPKLLIYSASSLYSGVPSRFSGSRSGTDFTLTISSLQPEDFATYYCQQAYYSLITFGQGTKVEIK
notes: Human Fab from a synthetic human Fab library, crude protein from E. coli with 6xHistidine tag
binding result [7]: no binding | binding result [8]: no binding | binding result [9]: no binding | binding result [10]: no binding | binding result [11]: no binding | binding result [12]: no binding | binding result (rhesus CD30 ECD): binds | Kd [5]: 11 nM | koff [5]: 0.0011 s⁻¹ | kon [5]: 98000 M⁻¹ s⁻¹ | rhCD30 Binding (RU) [5]: 37.7 RU

B4: AS53574 sdAb (VHH)
VHH: QVKLVESGGGSVQAGGSLRLSCAASGYIYSSNCMGWFRQAPGKEREWVARIHTGSGSTYYADSVKGRFTISQDNAKNTVYLQMNSLRPEDTAMYDCAAGRVVLGAVVCTNEYWGQGTQVTVSS
notes: Camel sdAb
binding result (rhesus CD30 ECD): binds | Kd [5]: 3 nM | koff [5]: 0.00021 s⁻¹ | kon [5]: 69000 M⁻¹ s⁻¹ | rhCD30 Binding (RU) [5]: 569 RU | binding result [6]: binds

More lines, now with the values ahead:

binding result [7]: no binding | binding result [8]: no binding | binding result [9]: no binding | binding result [10]: no binding | binding result [11]: no binding | binding result [12]: no binding | binding result (rhesus CD30 ECD): binds | Kd [5]: 170 nM | koff [5]: 0.015 s⁻¹ | kon [5]: 92000 M⁻¹ s⁻¹ | rhCD30 Binding (RU) [5]: 44.6 RU
B5: AS57911 human Fab (Fab, V domains shown)
VH: EVQLVESGGGLVQPGGSLRLSCAASGFNISSSYIHWVRQAPGKGLEWVAYISSYYSYTYYADSVKGRFTISADTSKNTAYLQMNSLRAEDTAVYYCARGYPYGMDYWGQGTLVTVSS
VL: DIQMTQSPSSLSASVGDRVTITCRASQSVSSAVAWYQQKPGKAPKLLIYSASSLYSGVPSRFSGSRSGTDFTLTISSLQPEDFATYYCQQSHALITFGQGTKVEIK
notes: as for B3

binding result [7]: no binding | binding result [8]: no binding | binding result [9]: no binding | binding result [10]: no binding | binding result [11]: no binding | binding result [12]: no binding | binding result (rhesus CD30 ECD): binds | Kd [5]: 27 nM | koff [5]: 0.0022 s⁻¹ | kon [5]: 82000 M⁻¹ s⁻¹ | rhCD30 Binding (RU) [5]: 83.6 RU
B6: AS57659 human Fab (Fab, V domains shown)
VH: EVQLVESGGGLVQPGGSLRLSCAASGFNIYSYYIHWVRQAPGKGLEWVASIYSSYSSTYYADSVKGRFTISADTSKNTAYLQMNSLRAEDTAVYYCARSWFSYPGLDYWGQGTLVTVSS
VL: B5 VL with S91P, H92Y, A93Y
notes: as for B3
